What was measured:
HeLa Kyoto [1] = experiment: solubility in G1/S (NP-40 vs SDS abundance) (log2 ratio); higher = more soluble; settings: cell cycle stage: G1/S
HeLa Kyoto [2] = experiment: thermal stability score vs G1/S (z-score of summed log2 fold changes over temperatures); higher = more thermally stable than in G1/S
HeLa Kyoto [3] = experiment: melting temperature (median over replicates), in situ; higher = more thermally stable
HeLa Kyoto [4] = experiment: solubility change mitosis vs G1/S (difference of NP-40 vs SDS log2 ratios) (log2 ratio difference); higher = more soluble in mitosis
[5] = cell cycle stage: early G1 (4.5 h after nocodazole release)
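For melting temperature (median over replicates), in situ in this document: HeLa Kyoto cells synchronized by double thymidine or nocodazole block, proteins quantified by TMT10plex mass spectrometry, three independent biological replicates.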
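For solubility change mitosis vs G1/S (difference of NP-40 vs SDS log2 ratios) in this document: synchronized HeLa Kyoto cells (double thymidine block for G1/S, nocodazole release for mitosis), protein amounts in NP-40 versus SDS lysates quantified by mass spectrometry, three biological replicates.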
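For solubility in G1/S (NP-40 vs SDS abundance) in this document: HeLa Kyoto cells arrested at G1/S by double thymidine block, proteins quantified by TMT10plex mass spectrometry in mild NP-40 versus SDS extracts, three biological replicates.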
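For thermal stability score vs G1/S (z-score of summed log2 fold changes over temperatures) in this document: synchronized HeLa Kyoto cells, proteins quantified by TMT10plex mass spectrometry, three biological replicates, mitosis taken 0.5 h after nocodazole release, G1/S directly after double thymidine block.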

MAP7D1, sequence (chain, as listed by the source): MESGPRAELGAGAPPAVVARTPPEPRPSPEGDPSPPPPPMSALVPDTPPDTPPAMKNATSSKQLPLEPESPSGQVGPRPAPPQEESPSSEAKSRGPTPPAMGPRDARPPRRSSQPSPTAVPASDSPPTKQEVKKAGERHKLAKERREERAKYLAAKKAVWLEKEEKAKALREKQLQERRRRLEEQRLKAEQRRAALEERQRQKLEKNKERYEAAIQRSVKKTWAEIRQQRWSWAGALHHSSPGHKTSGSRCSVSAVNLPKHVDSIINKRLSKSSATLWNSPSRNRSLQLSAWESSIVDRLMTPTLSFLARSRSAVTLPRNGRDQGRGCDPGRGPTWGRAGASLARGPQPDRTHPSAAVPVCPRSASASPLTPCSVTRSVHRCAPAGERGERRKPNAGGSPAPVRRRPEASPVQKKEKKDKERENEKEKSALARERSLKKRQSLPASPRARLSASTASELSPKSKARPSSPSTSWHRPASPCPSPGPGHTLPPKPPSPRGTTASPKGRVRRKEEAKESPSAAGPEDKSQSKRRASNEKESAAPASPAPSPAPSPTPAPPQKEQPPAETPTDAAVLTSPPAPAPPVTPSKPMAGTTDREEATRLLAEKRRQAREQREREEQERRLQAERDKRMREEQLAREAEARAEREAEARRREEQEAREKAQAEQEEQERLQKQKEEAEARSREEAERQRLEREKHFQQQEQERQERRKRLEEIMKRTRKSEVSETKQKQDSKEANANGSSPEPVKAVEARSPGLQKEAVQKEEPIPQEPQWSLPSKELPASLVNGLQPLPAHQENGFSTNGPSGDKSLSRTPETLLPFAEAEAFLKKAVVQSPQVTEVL

Substance	solubility in G1/S (log2) (HeLa Kyoto [1])	thermal stability score (HeLa Kyoto [2]; [5])	thermal stability score (HeLa Kyoto [2]; cell cycle stage: mitosis)	melting temperature (HeLa Kyoto [3]; cell cycle stage: G1/S) [°C]	melting temperature (HeLa Kyoto [3]; cell cycle stage: mitosis) [°C]	solubility change mitosis (log2) (HeLa Kyoto [4])
MEEAELVKGRLQAITDKRKIQEEISQKRLKIEEDKLKHQHLKKKALREKWLLDGISSGKEQEEMKKQNQQDQHQIQVLEQSILRLEKEIQDLEKAELQISTKEEAILKKLKSIERTTEDIIRSVKVEREERAEESIEDIYANIPDLPKSYIPSRLRKEINEEKEDDEQNRKALYAMEIKVEKDLKTGESTVLSSIPLPSDDFKGTGIKVYDDGQKSVYAVSSNHSAAYNGTDGLAPVEVEELLRQASERNSKSPTEYHEPVYANPFYRPTTPQRETVTPGPNFQERIKIKTNGLGIGVNESIHNMGNGLSEERGNNFNHISPIPPVPHPRSVIQQAEEKLHTPQKRLMTPWEESNVMQDKDAPSPKPRLSPRETIFGKSEHQNSSPTCQEDEEDVRYNIVHSLPPDINDTEPVTMIFMGYQQAEDSEEDKKFLTGYDGIIHAELVVIDDEEEEDEGEAEKPSYHPIAPHSQVYQPAKPTPLPRKRSEASPHENTNHKSPHKNSISLKEQEESLGSPVHHSPFDAQTTGDGTEDPSLTALRMRMAKLGKKVI [PALMD]	0.412	-0.598	0.967	53.2	53.1	0.124
MKGKEEKEGGARLGAGGGSPEKSPSAQELKEQGNRLFVGRKYPEAAACYGRAITRNPLVAVYYTNRALCYLKMQQHEQALADCRRALELDGQSVKAHFFLGQCQLEMESYDEAIANLQRAYSLAKEQRLNFGDDIPSALRIAKKKRWNSIEERRIHQESELHSYLSRLIAAERERELEECQRNHEGDEDDSHVRAQQACIEAKHDKYMADMDELFSQVDEKRKKRDIPDYLCGKISFELMREPCITPSGITYDRKDIEEHLQRVGHFDPVTRSPLTQEQLIPNLAMKEVIDAFISENGWVEDY [STUB1]	0.397	1.3	2.29	46.7	49.5	0.0745
MESYDIIANQPVVIDNGSGVIKAGFAGDQIPKYCFPNYVGRPKHMRVMAGALEGDLFIGPKAEEHRGLLTIRYPMEHGVVRDWNDMERIWQYVYSKDQLQTFSEEHPVLLTEAPLNPSKNREKAAEVFFETFNVPALFISMQAVLSLYATGRTTGVVLDSGDGVTHAVPIYEGFAMPHSIMRVDIAGRDVSRYLRLLLRKEGVDFHTSAEFEVVRTIKERACYLSINPQKDEALETEKVQYTLPDGSTLDVGPARFRAPELLFQPDLVGDESEGLHEVVAFAIHKSDMDLRRTLFANIVLSGGSTLFKGFGDRLLSEVKKLAPKDIKIKISAPQERLYSTWIGGSILASLDTFKKMWVSKKEYEEDGSRAIHRKTF [ACTR1B]	-0.021	-0.612	-1.12	54	53.1	-0.178
MHSEAEESKEVATDVFNSKNLAVQAQKKILGKMVSKSIATTLIDDTSSEVLDELYRVTREYTQNKKEAEKIIKNLIKTVIKLAILYRNNQFNQDELALMEKFKKKVHQLAMTVVSFHQVDYTFDRNVLSRLLNECREMLHQIIQRHLTAKSHGRVNNVFDHFSDCEFLAALYNPFGNFKPHLQKLCDGINKMLDEENI [TNFAIP8]	0.339	0.429	-0.108	51.9	51.7	-0.272
MAP7D1	0.337	-1.09	-4.66	52.8	51.2	0.536
MSSARFDSSDRSAWYMGPVSRQEAQTRLQGQRHGMFLVRDSSTCPGDYVLSVSENSRVSHYIINSLPNRRFKIGDQEFDHLPALLEFYKIHYLDTTTLIEPAPRYPSPPMGSVSAPNLPTAEDNLEYVRTLYDFPGNDAEDLPFKKGEILVIIEKPEEQWWSARNKDGRVGMIPVPYVEKLVRSSPHGKHGNRNSNSYGIPEPAHAYAQPQTTTPLPAVSGSPGAAITPLPSTQNGPVFAKAIQKRVPCAYDKTALALEVGDIVKVTRMNINGQWEGEVNGRKGLFPFTHVKIFDPQNPDENE [CRKL]	0.543	-0.327	-0.418	53	53.4	0.0605
MRPGAPGPLWPLPWGALAWAVGFVSSMGSGNPAPGGVCWLQQGQEATCSLVLQTDVTRAECCASGNIDTAWSNLTHPGNKINLLGFLGLVHCLPCKDSCDGVECGPGKACRMLGGRPRCECAPDCSGLPARLQVCGSDGATYRDECELRAARCRGHPDLSVMYRGRCRKSCEHVVCPRPQSCVVDQTGSAHCVVCRAAPCPVPSSPGQELCGNNNVTYISSCHMRQATCFLGRSIGVRHAGSCAGTPEEPPGGESAEEEENFV [FSTL3]	-0.141	2.88	2.67	51.7	54.8	0.0887
MGRLVAVGLLGIALALLGERLLALRNRLKASREVESVDLPHCHLIKGIEAGSEDIDILPNGLAFFSVGLKFPGLHSFAPDKPGGILMMDLKEEKPRARELRISRGFDLASFNPHGISTFIDNDDTVYLFVVNHPEFKNTVEIFKFEEAENSLLHLKTVKHELLPSVNDITAVGPAHFYATNDHYFSDPFLKYLETYLNLHWANVVYYSPNEVKVVAEGFDSANGINISPDDKYIYVADILAHEIHVLEKHTNMNLTQLKVLELDTLVDNLSIDPSSGDIWVGCHPNGQKLFVYDPNNPPSSEVLRIQNILSEKPTVTTVYANNGSVLQGSSVASVYDGKLLIGTLYHRALYCEL [PON2]	0.315	4.83	4.5	53.6	53.6	-0.101
MLLT4	-0.184	-0.182	-0.125	50.9	50.3	0.00908
MEPRPTAPSSGAPGLAGVGETPSAAALAAARVELPGTAVPSVPEDAAPASRDGGGVRDEGPAAAGDGLGRPLGPTPSQSRFQVDLVSENAGRAAAAAAAAAAAAAAAGAGAGAKQTPADGEASGESEPAKGSEEAKGRFRVNFVDPAASSSAEDSLSDAAGVGVDGPNVSFQNGGDTVLSEGSSLHSGGGGGSGHHQHYYYDTHTNTYYLRTFGHNTMDAVPRIDHYRHTAAQLGEKLLRPSLAELHDELEKEPFEDGFANGEESTPTRDAVVTYTAESKGVVKFGWIKGVLVRCMLNIWGVMLFIRLSWIVGQAGIGLSVLVIMMATVVTTITGLSTSAIATNGFVRGGGAYYLISRSLGPEFGGAIGLIFAFANAVAVAMYVVGFAETVVELLKEHSILMIDEINDIRIIGAITVVILLGISVAGMEWEAKAQIVLLVILLLAIGDFVIGTFIPLESKKPKGFFGYKSEIFNENFGPDFREEETFFSVFAIFFPAATGILAGANISGDLADPQSAIPKGTLLAILITTLVYVGIAVSVGSCVVRDATGNVNDTIVTELTNCTSAACKLNFDFSSCESSPCSYGLMNNFQVMSMVSGFTPLISAGIFSATLSSALASLVSAPKIFQALCKDNIYPAFQMFAKGYGKNNEPLRGYILTFLIALGFILIAELNVIAPIISNFFLASYALINFSVFHASLAKSPGWRPAFKYYNMWISLLGAILCCIVMFVINWWAALLTYVIVLGLYIYVTYKKPDVNWGSSTQALTYLNALQHSIRLSGVEDHVKNFRPQCLVMTGAPNSRPALLHLVHDFTKNVGLMICGHVHMGPRRQAMKEMSIDQAKYQRWLIKNKMKAFYAPVHADDLREGAQYLMQAAGLGRMKPNTLVLGFKKDWLQADMRDVDMYINLFHDAFDIQYGVVVIRLKEGLDISHLQGQEELLSSQEKSPGTKDVVVSVEYSKKSDLDTSKPLSEKPITHKVEEEDGKTATQPLLKKESKGPIVPLNVADQKLLEASTQFQKKQGKNTIDVWWLFDDGGLTLLIPYLLTTKKKWKDCKIRVFIGGKINRIDHDRRAMATLLSKFRIDFSDIMVLGDINTKPKKENIIAFEEIIEPYRLHEDDKEQDIADKMKEDEPWRITDNELELYKTKTYRQIRLNELLKEHSSTANIIVMSLPVARKGAVSSALYMAWLEALSKDLPPILLVRGNHQSVLTFYS [SLC12A2]	-0.0146	1.53	1.39	53.4	53.3	-0.137
MGTPQKDVIIKSDAPDTLLLEKHADYIASYGSKKDDYEYCMSEYLRMSGIYWGLTVMDLMGQLHRMNREEILAFIKSCQHECGGISASIGHDPHLLYTLSAVQILTLYDSINVIDVNKVVEYVKGLQKEDGSFAGDIWGEIDTRFSFCAVATLALLGKLDAINVEKAIEFVLSCMNFDGGFGCRPGSESHAGQIYCCTGFLAITSQLHQVNSDLLGWWLCERQLPSGGLNGRPEKLPDVCYSWWVLASLKIIGRLHWIDREKLRNFILACQDEETGGFADRPGDMVDPFHTLFGIAGLSLLGEEQIKPVNPVFCMPEEVLQRVNVQPELVS [RABGGTB]	0.122	-0.232	1.64	49.8	50.3	-0.347
MEASVILPILKKKLAFLSGGKDRRSGLILTIPLCLEQTNMDELSVTLDYLLSIPSEKCKARGFTVIVDGRKSQWNVVKTVVVMLQNVVPAEVSLVCVVKPDEFWDKKVTHFCFWKEKDRLGFEVILVSANKLTRYIEPCQLTEDFGGSLTYDHMDWLNKRLVFEKFTKESTSLLDELALINNGSDKGNQQEKERSVDLNFLPSVDPETVLQTGHELLSELQQRRFNGSDGGVSWSPMDDELLAQPQVMKLLDSLREQYTRYQEVCRQRSKRTQLEEIQQKVMQVVNWLEGPGSEQLRAQWGIGDSIRASQALQQKHEEIESQHSEWFAVYVELNQQIAALLNAGDEEDLVELKSLQQQLSDVCYRQASQLEFRQNLLQAALEFHGVAQDLSQQLDGLLGMLCVDVAPADGASIQQTLKLLEEKLKSVDVGLQGLREKGQGLLDQISNQASWAYGKDVTIENKENVDHIQGVMEDMQLRKQRCEDMVDVRRLKMLQMVQLFKCEEDAAQAVEWLSELLDALLKTHIRLGDDAQETKVLLEKHRKFVDVAQSTYDYGRQLLQATVVLCQSLRCTSRSSGDTLPRLNRVWKQFTIASEERVHRLEMAIAFHSNAEKILQDCPEEPEAINDEEQFDEIEAVGKSLLDRLTVPVVYPDGTEQYFGSPSDMASTAENIRDRMKLVNLKRQQLRHPEMVTTES [SESTD1]	0.132	-0.259	0.238		49.5	-0.126
MLYLIGLGLGDAKDITVKGLEVVRRCSRVYLEAYTSVLTVGKEALEEFYGRKLVVADREEVEQEADNILKDADISDVAFLVVGDPFGATTHSDLVLRATKLGIPYRVIHNASIMNAVGCCGLQLYKFGETVSIVFWTDTWRPESFFDKVKKNRQNGMHTLCLLDIKVKEQSLENLIKGRKIYEPPRYMSVNQAAQQLLEIVQNQRIRGEEPAVTEETLCVGLARVGADDQKIAAGTLRQMCTVDLGEPLHSLIITGGSIHPMEMEMLSLFSIPENSSESQSINGL [DPH5]	0.11	1.75	1.39	54.6	55.3	-0.136
MATEGDVELELETETSGPERPPEKPRKHDSGAADLERVTDYAEEKEIQSSNLETAMSVIGDRRSREQKAKQEREKELAKVTIKKEDLELIMTEMEISRAAAERSLREHMGNVVEALIALTN [HYPK]	0.395	-6.39	-8.21	54.4	54	0.208
MSTKNFRVSDGDWICPDKKCGNVNFARRTSCNRCGREKTTEAKMMKAGGTEIGKTLAEKSRGLFSANDWQCKTCSNVNWARRSECNMCNTPKYAKLEERTGYGGGFNERENVEYIEREESDGEYDEFGRKKKKYRGKAVGPASILKEVEDKESEGEEEDEDEDLSKYKLDEDEDEDDADLSKYNLDASEEEDSNKKKSNRRSRSKSRSSHSRSSSRSSSPSSSRSRSRSRSRSSSSSQSRSRSSSRERSRSRGSKSRSSSRSHRGSSSPRKRSYSSSSSSPERNRKRSRSRSSSSGDRKKRRTRSRSPERRHRSSSGSSHSGSRSSSKKK [ZRANB2]	-0.0186	0.299	0.397	58		-0.011

From the supplement of paper PMC5998384
